Here are results for 6 molecules from patent US20050203009A1, “VPAC1 selective antagonists and their pharmacological methods of use” (Bayer Pharmaceuticals Corporation, priority 2004, published 2005).

Square brackets hold non-standard residues; d marks the D form. Primed or numbered codes have the meaning given here. Side chains are listed from the residue outwards. Ends that are not written are not given here. Peptide text beside a SMILES is read from it. maleimide″ = maleimide group of the 22 kD methoxy-PEG-maleimide reagent, which reacts with the Cys sulfhydryl to form a stable thioether linkage; maleimide = methoxy-PEG-maleimide (thioether to cysteine thiol)

By IC50 is commonly meant the concentration that inhibits the measured activity by half. A lower IC50 goes with inhibition by little substance.

Test [1] has as its system NCI-H727 human non-small cell lung carcinoma cell line. Kind of test: NCI-H727 cancer cell proliferation assay (Alamar Blue). The test is classed as cell-based. On the procedure: NCI-H727 is an adherent human non-small cell lung carcinoma cell line. The cells are grown in RPMI-1640 plus 2 mM L-Glutamine and 10% FBS and cells subcultured in the following manner: Medium was removed and cells were rinsed once in PBS solution. To harvest the cells 10 mls PBS containing 2 ml of trypsin-EDTA solution was added to a 75 ml flask. The flask was incubated at 37° C. until the cells detached. Fresh culture medium was added, aspirated and dispensed into new culture flasks. A split ratio of 1:3 to 1:4 was carried out 2 times per week. The 96-well assay was performed as follows: Day 1) Cells were seeded at 7000 cells/well in 0.2 ml complete medium/well and incubated overnight at 37° C. Day 2) Complete medium was aspirated from wells and 200 ul/well PBS was added and aspirated. Cells were then treated with peptides using the assay medium RPMI-1640 plus 2 mM L-Glutamine and 0.2% FBS at a final volume of 200 ul/well and incubated for 2 days. Day 4) Alamar Blue (10% of total volume) was added to wells and absorbance (530/590 nm) read at 0, 4, 6, 8, 10 and 24 hours.
(Alamar Blue is a resazurin reagent that responds to reducing activity.)

The target of another test is T1, VPAC2 (Homo sapiens, UniProt P41587).
T1 construct: expressed in transfected cells; membranes
T1 sequence (P41587 24-438): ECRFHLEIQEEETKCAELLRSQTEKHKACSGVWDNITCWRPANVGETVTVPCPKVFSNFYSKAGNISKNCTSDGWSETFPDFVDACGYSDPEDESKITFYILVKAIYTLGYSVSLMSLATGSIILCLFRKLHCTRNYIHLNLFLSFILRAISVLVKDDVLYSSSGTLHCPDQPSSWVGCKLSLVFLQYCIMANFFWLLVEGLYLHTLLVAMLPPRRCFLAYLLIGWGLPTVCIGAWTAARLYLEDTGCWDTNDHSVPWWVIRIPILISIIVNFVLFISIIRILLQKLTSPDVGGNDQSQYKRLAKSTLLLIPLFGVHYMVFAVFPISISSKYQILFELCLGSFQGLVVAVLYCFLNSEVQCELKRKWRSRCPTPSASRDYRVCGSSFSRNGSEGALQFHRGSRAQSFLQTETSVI
Kind of test: Receptor competition assay, 125I-PACAP27 binding to CHO membranes (VPAC2). The settings on record: membranes of VPAC2-transfected CHO cells, 0.1 nM 125I-PACAP27. The source says: In order to test for selective binding of the VPAC1 selective antagonist to the VPAC1, both the VPAC1 and VPAC2 receptors were expressed in CHO cells using the following procedure. The human VPAC1 and the VPAC2 were cloned via RT PCR from human heart mRNA and human testis mRNA, respectively, using TaqPlus Precision PCR System (Stratagene). The PCR products were subcloned into pCDNA3.1 (Invitrogen) for in vitro translation and mammalian expression. The cell line chosen for expression was the CHOcreluc line already expressing a cAMP response element-luciferase reporter along with Gα16. These cells were grown under hygromycin selection at 0.4 mg/ml. On the day of transfection, CHOcreluc cells at 70% confluency were washed with serum free media and transfected using Lipofectamine Plus Reagent (Gibco BRL). Stable pools were selected in the presence of 0.4 mg/ml hygromycin and 1.5 mg/ml G418. Once viably-frozen stocks had been made from these pools they were cloned by limiting dilution.
The capacity of the VPAC1 selective antagonist to selectively bind the VPAC1 as opposed to the VPAC2 receptor was measured using membranes prepared from CHO cells transfected with both receptors as described in Example 3. […] The filters were washed with cold 25 mM NaPO4 containing 1% BSA and counted in a gamma counter. […]

The target of test [2] is T2, human VPAC1 (human, UniProt P32241 31-457).
T2 sequence (looked up): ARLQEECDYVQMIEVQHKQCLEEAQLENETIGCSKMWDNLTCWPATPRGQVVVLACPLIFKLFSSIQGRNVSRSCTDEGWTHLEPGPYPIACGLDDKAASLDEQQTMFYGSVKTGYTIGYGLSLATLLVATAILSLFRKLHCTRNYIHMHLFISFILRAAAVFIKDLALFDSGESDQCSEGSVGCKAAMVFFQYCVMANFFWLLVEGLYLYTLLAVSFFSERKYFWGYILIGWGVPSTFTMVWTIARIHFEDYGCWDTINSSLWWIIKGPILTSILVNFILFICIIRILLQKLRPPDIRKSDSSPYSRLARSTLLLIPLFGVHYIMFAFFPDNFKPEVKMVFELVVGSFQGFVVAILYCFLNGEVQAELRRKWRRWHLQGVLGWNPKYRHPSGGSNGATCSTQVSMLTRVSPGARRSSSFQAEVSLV
Kind of test: cell-based or functional assay.

The target of test [3] is T2, human VPAC1. In words: competition with 125I-PACAP27 on membranes of CHO cells expressing human VPAC1. On the procedure: (§1) Cells were washed with phosphate buffered saline (PBS), scraped in homogenization buffer (10 mM Tris pH 7.4, 2 mM EDTA, 5 mM MgCl2, 1 mM PMSF), followed by centrifugation at 4000 g for 10 minutes at 4° C. The cell pellet was resuspended in homogenization buffer and homogenized using a Polytron. Membranes were collected by centrifugation at 30,000 g for 30 minutes at 4° C., resuspended in homogenization buffer, and stored at −80° C. until use. […] After incubating at 37° C. for 20 minutes, bound ligand was collected on GF/C filters pretreated with 0.1% polyethylenimine. The filters were washed with cold 25 mM NaPO4 containing 1% BSA and counted in a gamma counter. All reagents were purchased from Sigma unless otherwise indicated.

The target in test [4] is T2, human VPAC1. In words: ratio of the VPAC2 and VPAC1 IC50 values, 125I-PACAP27 competition on CHO membranes. On the procedure: as §1

On to `CC[C@H](C)[C@H](NC(=O)[C@H](CO)NC(=O)[C@H](CCC(N)=O)NC(=O)[C@H](CC(C)C)NC(=O)[C@H](CC(C)C)NC(=O)[C@H](CCCCN)NC(=O)[C@H](CCCNC(=N)N)NC(=O)[C@H](C)NC(=O)[C@H](CO)NC(=O)[C@H](CC(C)C)NC(=O)[C@H](CCCNC(=N)N)NC(=O)[C@H](CCCCN)NC(=O)[C@H](CC(C)C)NC(=O)[C@@H](NC(=O)[C@H](CCCCN)NC(=O)[C@H](CCCNC(=N)N)NC(=O)[C@H](Cc1ccc(O)cc1)NC(=O)[C@H](CO)NC(=O)[C@H](CC(N)=O)NC(=O)[C@@H](NC(=O)[C@H](Cc1ccccc1)NC(=O)[C@@H](NC(=O)[C@H](C)NC(=O)[C@H](CC(=O)O)NC(=O)[C@@H](Cc1ccccc1)NC(=O)[C@H](Cc1c[nH]cn1)NC(C)=O)C(C)C)[C@@H](C)O)C(C)C)C(=O)N[C@@H](CC(C)C)C(N)=O` [Peptide R2P16] (HELM PEPTIDE1{[ac].H.[dF].D.A.V.F.T.N.S.Y.R.K.V.L.K.R.L.S.A.R.K.L.L.Q.S.I.L.[am]}$$$$V2.0), for which the “IC50 relative to reference compound R2P2” value in test [1] was “three times lower”.
In the test with VPAC2, “R2P11-PEG22kD: R2P11 (SEQ ID NO 5) PEGylated at the C-terminal cysteine with 22 kD methoxy-PEG-maleimide (Ac-H[dF]DAVFTNSYRKVLKRLSVRKLLQDILC([maleimide-methoxy‑PEG 22 kD]); not fully specified (C-terminus); printed as HfDAVFTNSYRKVLKRLSVRKLLQDILC*; also: C-terminal * undefined)” showed an IC50 of over 10000 nM.
Same read-out and setting: the figure for “R2P3-PEG22kD: R2P3 (SEQ ID NO 4) PEGylated at the C-terminal cysteine with 22 kD methoxy-PEG-maleimide (Ac-H[dF]DAVFTNSYRKVLKRLSARKLLQDILC([maleimide″-methoxy‑PEG 22 kD]); not fully specified (C-terminus); printed as HfDAVFTNSYRKVLKRLSARKLLQDILC*; also: C-terminal * undefined) [Peptide R2P3-PEG22kD]” is over 10000 nM.
As for Ac-H[dF]DAVFTNSYRKVLKRLSARKLLQDILC([maleimide-methoxy‑PEG 22 kD])-NH2 (also called PEGylated R2P3) [R2P3-PEG22kD], the “CHO VPAC1 cAMP inhibition (IC50 against 1 nM VIP)” value (“CHO VPAC1 cAMP inhibition” below) in the test with human VPAC1 [2] is 181 nM. Besides, the IC50 in the test with human VPAC1 [3] was determined as 21 nM. Moreover, in the test with human VPAC1 [4], the “VPAC2/1 Selectivity” value is over 480 fold.
As to Ac-H[dF]DAVFTNSYRKVLKRLSVRKLLQDILC([maleimide-methoxy‑PEG 22 kD])-NH2 (also called PEGylated R2P11) [R2P11-PEG22kD], in the test with human VPAC1 [2], the “CHO VPAC1 cAMP inhibition” value was 101 nM. The IC50 in the test with human VPAC1 [3] came to 49 nM. Moreover, the “VPAC2/1 Selectivity” value in the test with human VPAC1 [4] was over 200 fold.

B1: R2P16 (peptide)
peptide: HFDAVFTNSYRKVLKRLSARKLLQSIL
HELM: PEPTIDE1{[ac].H.[dF].D.A.V.F.T.N.S.Y.R.K.V.L.K.R.L.S.A.R.K.L.L.Q.S.I.L.[am]}$$$$V2.0
SMILES: CC[C@H](C)[C@H](NC(=O)[C@H](CO)NC(=O)[C@H](CCC(N)=O)NC(=O)[C@H](CC(C)C)NC(=O)[C@H](CC(C)C)NC(=O)[C@H](CCCCN)NC(=O)[C@H](CCCNC(=N)N)NC(=O)[C@H](C)NC(=O)[C@H](CO)NC(=O)[C@H](CC(C)C)NC(=O)[C@H](CCCNC(=N)N)NC(=O)[C@H](CCCCN)NC(=O)[C@H](CC(C)C)NC(=O)[C@@H](NC(=O)[C@H](CCCCN)NC(=O)[C@H](CCCNC(=N)N)NC(=O)[C@H](Cc1ccc(O)cc1)NC(=O)[C@H](CO)NC(=O)[C@H](CC(N)=O)NC(=O)[C@@H](NC(=O)[C@H](Cc1ccccc1)NC(=O)[C@@H](NC(=O)[C@H](C)NC(=O)[C@H](CC(=O)O)NC(=O)[C@@H](Cc1ccccc1)NC(=O)[C@H](Cc1c[nH]cn1)NC(C)=O)C(C)C)[C@@H](C)O)C(C)C)C(=O)N[C@@H](CC(C)C)C(N)=O
notes: Synthetic VIP/GHRH hybrid peptide, not PEGylated; also called Peptide R2P16
On to B1, for which the “CHO VPAC1 cAMP inhibition” value in the test with human VPAC1 [2] was found to be 50 nM. Further, the IC50 with human VPAC1 [3] is 17 nM. In the test with human VPAC1 [4], the “VPAC2/1 Selectivity” value is over 700 fold.
